# Experimental data taken from the DeepSol protein solubility set.
# Assay: soluble on expression in E. coli; label from the status in PepcDB or PDB records
row,Sequence,soluble on expression in E. coli
1,MGSDKIHHHHHHMKNNHTLIIGGGIVGATLALKLAQDNKPVTLIDARPKRSEADWQQVLGQRDARVYALSLASIHLLKEVGAWQKIAASERKADYSQMQVWQLNGMGELLFGDSGDSNSSTGNSNVANNNDNTEPKMLGSMVEPAVIEHALWQRLSAPDVSQYLTVIAGHKVVDMDWLGATQGYRVTLDNGDVIDARLLVGADGRGSFVRKQAGIELDVLDYNQTAICCAIQTEKPHLATARQAMLPTGTLALLPLADITDEDKANPQHWQSIVWTLPRNQALALVAEHPCYIADKLAAASHYELGAIHKIESIASFPLAAQQAKSYVADNLVLIGDAAHGVHPLAGQGLNLGMLDVRALSKQLAHDYNRSGGTLWGANQTLRSYERLRRPHNSLMMHSFSALNWLFAGSLAQIRPVQQLRNEGMYRVSKIKPLMRLFAKQASGV,not soluble
2,MSQQHDYVIGKNAVIETLKSDRKLYKLWMAENTVKGQAQQVIELAKKQGITIQYVPRKKLDQMVTGQHQGVVAQVAAYEYAELDDLYKAAEEKNEQPFFLILDELEDPHNLGSIMRTADAVGAHGIVIPKRRAVGLTTTVAKASTGAIEHIPVARVTNLARTLEEMKERGIWVVGTDASAREDFRNMDGNMPLALVIGSEGKGMGRLVKEKCDFLIKLPMAGKVTSLNASVAAGLLMYEVYRKRNPVGE,not soluble
3,GYMPPIEHLQNPIDKYASQLISADGKVFGSYAHSGDNRIYTRYNEISPDLIKALIATEDVRFRKHSGIDSKGLFRAVVKRGILNQKSGGGGSTITQQLAKLLYSPRTETKLGRLFQKPIEWVIAVKLERFYTKEEIITMYLNYFDFLYNAVGIKSAAYTYFGKQPADLKIEEAAVLVGMCKNPAYYNPVLHGETERCRGRRNIVLEQMYKAKYITKAECDSLQKLPLVTSFHRITHRDGEAPYFRERLRQVLMAKKPERKNYLAWQDDQYRADSIAWETDPVYGWCNKNKKADGSNYNIYTDGLKIYTTIDLRMQQYAEEAMVKQMKEVLQPIFDKEKRGRSYAPFSRDITSDEQRSILLRAMKQTDRWREMKKAGISESEIRASFNKKRKMQVWNWRGTIDTVMSPLDSIKYLKGILRTGFMAMNPHNGHIKAYVGGINFRNFQYDMVSQGRRQVGSTIKPFLYSLSMLEGISPCDEMLHVSQTLFTESGKAWTPKNTGARRTGEMVSIKWGLQNSSNWVTAYLMGRTSPYTFVRLLRS,not soluble
4,MILHGFHLSTSSHCLPFIFRHLFIFHSITALCDHMLSKFVVVEVSNSNNTMTLVEYLVTHGFDKFAVVTDLVDHPSFKYKDGSSSPESPSTTASTAAQHTPPRTAVSTPTSINTPVPPHQNKQRHSIDKIAANLSTKKVSPSSIEKQLQRTSHNPLHQLSTPHALSQLQKLLEEQHKINQMNIQKKEQERQQAEIQRILLQQANAAQINHSFGLERLTPEYDDNHHSETISKASSEDLKTEPDSTDFGLGTSDDQVRASMLHLLHPVFAPAFGMLDAENIFGAASKPTTPASKRRNTDSNGAPSKKHRWLPVNELEESRSSRGKNCGRVHCKATYKCALCGKPTTLNSTGSRWNLLRHVIMIHSDCKPYKCWDCDFTGIKSNVISHARQCRHNAEDAHDITTDEMRAEWNLRLHECFPDYVRAKERGWQPEEVTVKKEEVEESPTLVKQELTLVKQEPTFAEQLEPMAQPLV,not soluble
5,MAHHHHHHMVDRIEATLNRLIAFGPGTASYTDDAAFLQNVASAMEVAGEIPVLTEACMSLSVDLLENSSPQSAATHAVLTLLACCCMRDDNRELASRFGIFSLCVLLLRSSELLCKDTLLTIFDLIGTLCMSSASTRQMMRPCIPYVLGVMRTHPDCFQLCFSGAVVIGTLVMLDAANAELAAENDCVQILLTAFMRGHDKRKELLNRRRTSYSLRCQREEDESRRLCDNVIRWTEDALQKLVLAPSPVIDAKLEAADFGNYGDRVEVDELMWKLKFGRGKM,not soluble
6,MPIYEYACHACGLEKEHLQKMSDAPIANCPACGSSDYVKKVSAAGFQLKGTGWYVTDFRNKNTRSDSKPKEESGKEAADTDKAAATTTTDSTTATATTASTSTTAPTVSSVD,not soluble
7,MTPYNEREVLKLLQEESTQRKGFELIVAQYSEQLYWQIRRMVLSHEDANDLLQNTFIKAWTNIDYFRAEAKLSTWLYRIALNECLTFLNRQRATTTVAIDDPEAAIVQKLESDPYYSGDQVQMLLQKALLTLPEKQRMVFNLKYYQEMKYEEMSEIFGTSVGALKASYHHAVKKIEKFLEEVD,not soluble
8,MSLTADPPACTVPAAGVSSTHKLVNGGAEKIVFKIKSSNNNEYRIAPVFGFVDPSGSKDVVITRTAGAPKEDKLVVHFASAPADATDAQAAFVAVAPAGTVTIPMSATA,soluble
9,MSLTTSIPAPPAESIDQVLNLISKGSNGAAQQSKHPLRIVMGSVMISEIGALISGVLKSLNNNFTTQKVWEEDYLVRVMAHLGLFAHAVGSQVSANDLTQLLTLYVQRLSARGFTDLVPLYLSFIPDDSDAREYYSKFLSSITDPSERTKQLQLVRKLGIDSNGDEERMANVLRRTVERVMADTEAEYRPSGEVTVQDEDTDVTETDTKICQSVDWYFENNMYPDAVSASLTVIRRFLACGRLAALRHFVRGKDLKQLVKNYDVDLYTRSLAGLDDGAQVGDADKDEIIQYHLFVQGLELIQDWRKFLKDNQTNSLSAVFWKSKHLESLIEKVSSGIVGLIRDWFQELIATDGTKKEMYQQLRVLYVPYLVMELLDIYQQARMSNWLYVKKAFELVSLVADEDNNDLLTCFVNCGRLDELMVRSGNLAAVACERGIANIFSEGHHHHHH,soluble
10,MSLGNVGHLITPAIPLDYGELLAAPVTSSESMAQLRGRWIVLSVADGPCAEVCRQNLYKTRQMRLMLNKEIPRVRRLLLLTDPGAADALADWLRQDEFLAVAGLAPTLREKLEKAVGGPLQPGQILLLDPLGNLMMYYDADFDPYGVLKDLKHLLRASQIGEGHHHHHH,soluble
11,GPGSMYHGNGSVNDAADASFCPQPSPTRPSREAPPSAPPPTGRVTRTQALARLLRGEGSSTHTKPVRAPGNDAKELKVSETRKECVVGEVQADAPPKKSEGTSSHAAVPLAASATITPDDRDDIGAALQEIGDASRRHRRHSHDAEGTSGDAVRDDASDGGAANMSDDYNGDDNSESTCSARRSGAGSAPAEGFSAHPTHARARGRAVSTRQAANALPRMLALQRSFEAEAKHLYEYCGTHVVEWPTLAVEWIPDRAFVDPERDYTLQYLAIGTQAHPLSGAANAVKVMEVAVPVTAAKDVMYGLYGDDDTAGVEAVDPAREGGIDPGKRFANVKGHFHCEQTLTMDAAVLKIRAMPAETNVIAVKTASGFIGVYNLLQDLTQNEAGRTVPDALLCGHRRGGFGLSWNALKPGFIASAADDGYVNYYDVSHRLTIDVREASDVDPALTGPETQPLERLVGHRDIVTDCCWHSSQGHLLASSSMDGDARLWDIRMSAGSSTIPSAHASGATAAQFHPIGAFQLATAGAEGSISLWDIRRTADPVWELNYHGRPITGLQWSPFCETVMLSYGADGRVVLWDLAKTTLPLGYSEDQLAPPEVSFVHIGHVGRVTDASWNSSTTEEWLLASADTTNGVHVYRPLVNVVQDYRAYQH,not soluble
12,MSLGAQTLEYWVYSDFAQGEALALQQDFIKEFQESHPGVTVNIVGKGDDDLTAGQIAGAASGNLPDVFMNAVGVGAQLVDVGALANIHDKWMAMPEEFRAQFNKGAVENCAPRPEEMYCIPYTGYGTLLFRNLTVLEEAGIDTSAPPADWADWLAQMEKVKAAGKFAIPDQALVFNSIAEMYGVTGDVSTWGIDWESKTTRIDPAVMTSVLEKFVAMQPLTSGTSRNDQATKDLFVTNQLAFHTIGPWVNPTYVEAVENSGLKYDFVLMPGETADKHGGIKNFEIVGVAPGENLDLAFEFATYITAKEQMARWAKLLSRYNSNDAAMAEADVAALPLVARSVAAVEVTMDVSPPYLIQPVPACYQSTVVDYVSATADGEFTPEEGAAEMIAELNDCLAGEGHHHHHH,soluble
13,MLSAKGPQMRAFTQRVAAFSTQLQIDPIPIVFVGKGTTPRQNSLLGPNDSQYPFQGDVSFAHKPLSIRQQVENSKIERVMDDTEHNLINLLSNTNIEVDRTHLAQLKEEAMEEIQANAADVEIELSAIEAPKLLKKEMKYLFPQMETQKMNNVTVFNLTQKSEFDMKAWSEAMEEEREKLTASFIMSANAICSTLHRFGYWADFIDPSSGRPYMGDYTNHTLFETNDAYKQMGFKIEDLGCCKVLQHACWGSNAFVGTIFTDAPVDGDAVRDILKKVTQEIDE,not soluble
14,ELQVIQPEKSVSVAAGESATLRCAMTSLIPVGPIMWFRGAGAGRELIYNQKEGHFPRVTTVSELTKRNNLDFSISISNITPADAGTYYCVKFRKGSPDDVEFKSGAGTELSVRAKPSAPVVSG,soluble
15,MSQLSFADVFNMAREAADNSPVIQAGQQIAEMVPTVQRMMSEQYSRSRFIRVFKDTGRHLGRWEVFSDFLSLAASELDMARIRTPESMENCRKICARYGATDIANMQEMFCLMVCALEAKFHDFLGAIFMELELGDNFRGQYFTPYSVQCLMARMLMPGVRDTIRREGIATVSDPACGAAGMLIAYAECLLEADINPSMHMFGSCIDIDPVAADMAFIQLSLLGIAAEVVTGNTLTMQYRRVRYTPVYYLNAFEKRLADLRRFRAMRDFLRGIQEAA,not soluble
16,MSLRVQANSRSMGVLEDKARARTFYKYLSKVYDRVNTFIWTEEMRAEALSMLDIDAEDRVLDVGCGTGFGTEGLLKHTEHVYGLDQSPHQLTKAWEKFGKHDPVAFHFGDAERLPFKPDSFDVVWSSGSIEYWPHPVQGLRELRRVAKPGSQVLVVGPDYPASTVFRKLADAIMLFYDEDEADRMFREAGYEEIQHRVLRKEPNSPPAIVTVARAPAADDEGHHHHHH,soluble
17,GPGSMSMNVYKRQEKLRLYRALLKGANRFPLRSRREIVTEEVRGAFRHPLNDSLTTKEVDYKLLLGWERAAAIQTYAENMYWFHSRDEVSREMMHHSLERDRQRIREMERCNAVGNAEIKTPEVTEFKSSMYHVHPDYHGKIGQMPLTHSRDIWRARGQYGSDVGGPRQKFYVRRFKALFPQGW,not soluble
18,MAHHHHHHMNYNNNSFIPPTHVVKNIYTSAKTKFFLIKSSSDKNIAISLNYNIWATTPKNEYKFVSAFMEHDYVILVFSVNGSSKFCGYAIMQSKPGESKNNNVYFYYDNKVFRGKNFDIQWIRVVDVPFQEVAHLKNSLNEYKPIKVGRDGQEIEQMAGIQLCEAFESNFIKINNNITDTNTKPNIPPMYNMNTNNYVDSPNMNENIDMIKLYPYNNNFNINYNNFRNLYEESQYNLFNFYNPALHIFPIDLTNMNYDEYIYLYEKSQLVWQQKMLQMKANMNCIKQ,not soluble
19,TSALIERIDAIIVDLPTIRPHKLAMHTMQQQTLVVLRVRCSDGVEGIGEATTIGGLAYGYESPEGIKANIDAHLAPALIGLAADNINAAMLKLDALAKGNTFAKSGIESALLDAQGKRLGLPVSELLGGRVRDSLEVAWTLASGDTARDIAEARHMLEIRRHRVFKLKIGANPVEQNLKHVVTIKRELGDSASVRVDVNQYWDESQAIRACQVLGDNGIDLIEQPISRINRGGQVRLNQRTPAPIMADESIESVEDAFSLAADGAASIFALKIAKNGGPRAVLRTAQIAEAAGIGLYGGTMLEGSIGTLASAHAFLTLRQLTWGTELFGPLLLTEEIVNEPPQYRDFQLHIPRTPGLGLTLDEARLARFARR,soluble
